Experimental data as given in US20220204580A1 (AstraZeneca / MedImmune, published 2022).
Blank lines part the entries; values can stand above or below the binder they belong to. Numbered stars: 1 amine (or outer) side, 2 acyl side, 3 side chain; on linkers, the order of the positions; unused ones are H or OH. Bridge positions count the residues as written; N and C are the ends. Square brackets hold non-standard residues; d marks the D form. Side chains are listed from the residue outwards. Ends that are not written are not given here. * marks the point of attachment. C18 diacid = O=C(O)CCCCCCCCCCCCCCCCC(=O)*; γGlu = O=C(O)[C@H](CCC(=O)[*:2])N[*:1]; Aib = CC(C)(N)C(=O)O

Legend:
[1] = target: T1, human amylin receptor (calcitonin receptor co-expressed with receptor activity modifying protein, RAMP3) (human, UniProt P30988 25-474; O60896 24-148); assay: cell-based or functional assay
T1 sequence (looked up) 1: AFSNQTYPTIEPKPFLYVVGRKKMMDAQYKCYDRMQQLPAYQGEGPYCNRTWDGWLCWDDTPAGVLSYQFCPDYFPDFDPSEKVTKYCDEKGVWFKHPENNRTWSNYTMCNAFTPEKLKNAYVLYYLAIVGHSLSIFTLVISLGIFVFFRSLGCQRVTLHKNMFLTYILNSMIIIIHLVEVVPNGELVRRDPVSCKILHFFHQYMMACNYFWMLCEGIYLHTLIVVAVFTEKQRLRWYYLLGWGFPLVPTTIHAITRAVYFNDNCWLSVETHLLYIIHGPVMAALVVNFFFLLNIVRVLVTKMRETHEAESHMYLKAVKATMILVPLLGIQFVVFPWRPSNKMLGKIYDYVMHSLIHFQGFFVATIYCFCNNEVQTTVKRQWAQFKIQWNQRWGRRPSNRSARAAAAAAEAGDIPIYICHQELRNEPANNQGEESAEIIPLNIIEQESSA
T1 sequence (looked up) 2: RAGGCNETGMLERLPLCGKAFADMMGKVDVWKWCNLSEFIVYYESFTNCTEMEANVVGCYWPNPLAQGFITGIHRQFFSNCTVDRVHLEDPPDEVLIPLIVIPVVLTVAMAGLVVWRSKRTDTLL

[2] = target: T2, human calcitonin receptor (human, UniProt P30988 25-474); assay: cell-based or functional assay
T2 sequence (looked up): T1 sequence (looked up) 1

EC50 (cAMP production) [1]: 414 pM | Ratio (EC50 hCTR / EC50 hAMYR3) [1]: 9.5 | EC50 (cAMP production) [2]: 3950 pM
B1: Peptide 141 (SEQ ID NO: 141) (peptide)
peptide: K([γGlu-C18 diacid])KCNTATCATQRLANFL[Aib]HSSNNFGPILPPTNVGSRTY-NH2
modifications: disulfide 3-8; N-terminus assumed
SMILES: CC[C@H](C)[C@H](NC(=O)[C@@H]1CCCN1C(=O)CNC(=O)[C@H](Cc1ccccc1)NC(=O)[C@H](CC(N)=O)NC(=O)[C@H](CC(N)=O)NC(=O)[C@H](CO)NC(=O)[C@H](CO)NC(=O)[C@H](Cc1c[nH]cn1)NC(=O)C(C)(C)NC(=O)[C@H](CC(C)C)NC(=O)[C@H](Cc1ccccc1)NC(=O)[C@H](CC(N)=O)NC(=O)[C@H](C)NC(=O)[C@H](CC(C)C)NC(=O)[C@H](CCCNC(=N)N)NC(=O)[C@H](CCC(N)=O)NC(=O)[C@@H](NC(=O)[C@H](C)NC(=O)[C@@H]1CSSC[C@H](NC(=O)[C@H](CCCCN)NC(=O)[C@@H](N)CCCCNC(=O)CC[C@H](NC(=O)CCCCCCCCCCCCCCCCC(=O)O)C(=O)O)C(=O)N[C@@H](CC(N)=O)C(=O)N[C@@H]([C@@H](C)O)C(=O)N[C@@H](C)C(=O)N[C@@H]([C@@H](C)O)C(=O)N1)[C@@H](C)O)C(=O)N[C@@H](CC(C)C)C(=O)N1CCC[C@H]1C(=O)N1CCC[C@H]1C(=O)N[C@H](C(=O)N[C@@H](CC(N)=O)C(=O)N[C@H](C(=O)NCC(=O)N[C@@H](CO)C(=O)N[C@@H](CCCNC(=N)N)C(=O)N[C@H](C(=O)N[C@@H](Cc1ccc(O)cc1)C(N)=O)[C@@H](C)O)C(C)C)[C@@H](C)O

EC50 (cAMP production) [1]: 592 pM | Ratio (EC50 hCTR / EC50 hAMYR3) [1]: 11.7 | EC50 (cAMP production) [2]: 6940 pM
B2: Peptide 143 (SEQ ID NO: 143) (peptide)
peptide: K([γGlu-C18 diacid])GGKCNTATCATQRLANFL[Aib]HSSNNFGPILPPTNVGSNTY-NH2
modifications: disulfide 5-10; N-terminus assumed
SMILES: CC[C@H](C)[C@H](NC(=O)[C@@H]1CCCN1C(=O)CNC(=O)[C@H](Cc1ccccc1)NC(=O)[C@H](CC(N)=O)NC(=O)[C@H](CC(N)=O)NC(=O)[C@H](CO)NC(=O)[C@H](CO)NC(=O)[C@H](Cc1c[nH]cn1)NC(=O)C(C)(C)NC(=O)[C@H](CC(C)C)NC(=O)[C@H](Cc1ccccc1)NC(=O)[C@H](CC(N)=O)NC(=O)[C@H](C)NC(=O)[C@H](CC(C)C)NC(=O)[C@H](CCCNC(=N)N)NC(=O)[C@H](CCC(N)=O)NC(=O)[C@@H](NC(=O)[C@H](C)NC(=O)[C@@H]1CSSC[C@H](NC(=O)[C@H](CCCCN)NC(=O)CNC(=O)CNC(=O)[C@@H](N)CCCCNC(=O)CC[C@H](NC(=O)CCCCCCCCCCCCCCCCC(=O)O)C(=O)O)C(=O)N[C@@H](CC(N)=O)C(=O)N[C@@H]([C@@H](C)O)C(=O)N[C@@H](C)C(=O)N[C@@H]([C@@H](C)O)C(=O)N1)[C@@H](C)O)C(=O)N[C@@H](CC(C)C)C(=O)N1CCC[C@H]1C(=O)N1CCC[C@H]1C(=O)N[C@H](C(=O)N[C@@H](CC(N)=O)C(=O)N[C@H](C(=O)NCC(=O)N[C@@H](CO)C(=O)N[C@@H](CC(N)=O)C(=O)N[C@H](C(=O)N[C@@H](Cc1ccc(O)cc1)C(N)=O)[C@@H](C)O)C(C)C)[C@@H](C)O

EC50 (cAMP production) [1]: 138 pM | Ratio (EC50 hCTR / EC50 hAMYR3) [1]: 5.3 | EC50 (cAMP production) [2]: 725 pM
B3: Peptide 144 (SEQ ID NO: 144) (peptide)
peptide: K([γGlu-C18 diacid])CNTATCATQRLAHFL[Aib]HSSNNFGPILPPTNVGSNTY-NH2
modifications: disulfide 2-7; N-terminus assumed
SMILES: CC[C@H](C)[C@H](NC(=O)[C@@H]1CCCN1C(=O)CNC(=O)[C@H](Cc1ccccc1)NC(=O)[C@H](CC(N)=O)NC(=O)[C@H](CC(N)=O)NC(=O)[C@H](CO)NC(=O)[C@H](CO)NC(=O)[C@H](Cc1c[nH]cn1)NC(=O)C(C)(C)NC(=O)[C@H](CC(C)C)NC(=O)[C@H](Cc1ccccc1)NC(=O)[C@H](Cc1c[nH]cn1)NC(=O)[C@H](C)NC(=O)[C@H](CC(C)C)NC(=O)[C@H](CCCNC(=N)N)NC(=O)[C@H](CCC(N)=O)NC(=O)[C@@H](NC(=O)[C@H](C)NC(=O)[C@@H]1CSSC[C@H](NC(=O)[C@@H](N)CCCCNC(=O)CC[C@H](NC(=O)CCCCCCCCCCCCCCCCC(=O)O)C(=O)O)C(=O)N[C@@H](CC(N)=O)C(=O)N[C@@H]([C@@H](C)O)C(=O)N[C@@H](C)C(=O)N[C@@H]([C@@H](C)O)C(=O)N1)[C@@H](C)O)C(=O)N[C@@H](CC(C)C)C(=O)N1CCC[C@H]1C(=O)N1CCC[C@H]1C(=O)N[C@H](C(=O)N[C@@H](CC(N)=O)C(=O)N[C@H](C(=O)NCC(=O)N[C@@H](CO)C(=O)N[C@@H](CC(N)=O)C(=O)N[C@H](C(=O)N[C@@H](Cc1ccc(O)cc1)C(N)=O)[C@@H](C)O)C(C)C)[C@@H](C)O

EC50 (cAMP production) [1]: 417 pM | Ratio (EC50 hCTR / EC50 hAMYR3) [1]: 4.5 | EC50 (cAMP production) [2]: 1880 pM
B4: Peptide 145 (SEQ ID NO: 145) (peptide)
peptide: K([γGlu-C18 diacid])KCNTATCATQRLANFL[Aib]HSSNNFGPILPPTNVGHNTY-NH2
modifications: disulfide 3-8; N-terminus assumed
SMILES: CC[C@H](C)[C@H](NC(=O)[C@@H]1CCCN1C(=O)CNC(=O)[C@H](Cc1ccccc1)NC(=O)[C@H](CC(N)=O)NC(=O)[C@H](CC(N)=O)NC(=O)[C@H](CO)NC(=O)[C@H](CO)NC(=O)[C@H](Cc1c[nH]cn1)NC(=O)C(C)(C)NC(=O)[C@H](CC(C)C)NC(=O)[C@H](Cc1ccccc1)NC(=O)[C@H](CC(N)=O)NC(=O)[C@H](C)NC(=O)[C@H](CC(C)C)NC(=O)[C@H](CCCNC(=N)N)NC(=O)[C@H](CCC(N)=O)NC(=O)[C@@H](NC(=O)[C@H](C)NC(=O)[C@@H]1CSSC[C@H](NC(=O)[C@H](CCCCN)NC(=O)[C@@H](N)CCCCNC(=O)CC[C@H](NC(=O)CCCCCCCCCCCCCCCCC(=O)O)C(=O)O)C(=O)N[C@@H](CC(N)=O)C(=O)N[C@@H]([C@@H](C)O)C(=O)N[C@@H](C)C(=O)N[C@@H]([C@@H](C)O)C(=O)N1)[C@@H](C)O)C(=O)N[C@@H](CC(C)C)C(=O)N1CCC[C@H]1C(=O)N1CCC[C@H]1C(=O)N[C@H](C(=O)N[C@@H](CC(N)=O)C(=O)N[C@H](C(=O)NCC(=O)N[C@@H](Cc1c[nH]cn1)C(=O)N[C@@H](CC(N)=O)C(=O)N[C@H](C(=O)N[C@@H](Cc1ccc(O)cc1)C(N)=O)[C@@H](C)O)C(C)C)[C@@H](C)O

EC50 (cAMP production) [1]: 730 pM | Ratio (EC50 hCTR / EC50 hAMYR3) [1]: 3.1 | EC50 (cAMP production) [2]: 2270 pM
B5: Peptide 142 (SEQ ID NO: 142) (peptide)
peptide: K([γGlu-C18 diacid])KCNTATCATQRLANFL[Aib]HSSNNFGPILPPTNVGSETY-NH2
modifications: disulfide 3-8; N-terminus assumed
SMILES: CC[C@H](C)[C@H](NC(=O)[C@@H]1CCCN1C(=O)CNC(=O)[C@H](Cc1ccccc1)NC(=O)[C@H](CC(N)=O)NC(=O)[C@H](CC(N)=O)NC(=O)[C@H](CO)NC(=O)[C@H](CO)NC(=O)[C@H](Cc1c[nH]cn1)NC(=O)C(C)(C)NC(=O)[C@H](CC(C)C)NC(=O)[C@H](Cc1ccccc1)NC(=O)[C@H](CC(N)=O)NC(=O)[C@H](C)NC(=O)[C@H](CC(C)C)NC(=O)[C@H](CCCNC(=N)N)NC(=O)[C@H](CCC(N)=O)NC(=O)[C@@H](NC(=O)[C@H](C)NC(=O)[C@@H]1CSSC[C@H](NC(=O)[C@H](CCCCN)NC(=O)[C@@H](N)CCCCNC(=O)CC[C@H](NC(=O)CCCCCCCCCCCCCCCCC(=O)O)C(=O)O)C(=O)N[C@@H](CC(N)=O)C(=O)N[C@@H]([C@@H](C)O)C(=O)N[C@@H](C)C(=O)N[C@@H]([C@@H](C)O)C(=O)N1)[C@@H](C)O)C(=O)N[C@@H](CC(C)C)C(=O)N1CCC[C@H]1C(=O)N1CCC[C@H]1C(=O)N[C@H](C(=O)N[C@@H](CC(N)=O)C(=O)N[C@H](C(=O)NCC(=O)N[C@@H](CO)C(=O)N[C@@H](CCC(=O)O)C(=O)N[C@H](C(=O)N[C@@H](Cc1ccc(O)cc1)C(N)=O)[C@@H](C)O)C(C)C)[C@@H](C)O

EC50 (cAMP production) [1]: 285 pM | Ratio (EC50 hCTR / EC50 hAMYR3) [1]: 3.7 | EC50 (cAMP production) [2]: 1040 pM
B6: Peptide 139 (SEQ ID NO: 139) (peptide)
peptide: K([γGlu-C18 diacid])KCNTATCATQRLANFL[Aib]HSSPNFGPILPPTNVGSETY-NH2
modifications: disulfide 3-8; N-terminus assumed
SMILES: CC[C@H](C)[C@H](NC(=O)[C@@H]1CCCN1C(=O)CNC(=O)[C@H](Cc1ccccc1)NC(=O)[C@H](CC(N)=O)NC(=O)[C@@H]1CCCN1C(=O)[C@H](CO)NC(=O)[C@H](CO)NC(=O)[C@H](Cc1c[nH]cn1)NC(=O)C(C)(C)NC(=O)[C@H](CC(C)C)NC(=O)[C@H](Cc1ccccc1)NC(=O)[C@H](CC(N)=O)NC(=O)[C@H](C)NC(=O)[C@H](CC(C)C)NC(=O)[C@H](CCCNC(=N)N)NC(=O)[C@H](CCC(N)=O)NC(=O)[C@@H](NC(=O)[C@H](C)NC(=O)[C@@H]1CSSC[C@H](NC(=O)[C@H](CCCCN)NC(=O)[C@@H](N)CCCCNC(=O)CC[C@H](NC(=O)CCCCCCCCCCCCCCCCC(=O)O)C(=O)O)C(=O)N[C@@H](CC(N)=O)C(=O)N[C@@H]([C@@H](C)O)C(=O)N[C@@H](C)C(=O)N[C@@H]([C@@H](C)O)C(=O)N1)[C@@H](C)O)C(=O)N[C@@H](CC(C)C)C(=O)N1CCC[C@H]1C(=O)N1CCC[C@H]1C(=O)N[C@H](C(=O)N[C@@H](CC(N)=O)C(=O)N[C@H](C(=O)NCC(=O)N[C@@H](CO)C(=O)N[C@@H](CCC(=O)O)C(=O)N[C@H](C(=O)N[C@@H](Cc1ccc(O)cc1)C(N)=O)[C@@H](C)O)C(C)C)[C@@H](C)O
